Target: the molecule itself
Assay: dynamic light scattering; Malvern Zetasizer Nano ZS, hsp60 (wild type or mutant) without nucleotide (APO); percent volume

Row | Protein | stoichiometry N
1 | human mitochondrial hsp60 D3G mutant (MitCHAP-60) (natural protein, UniProt P10809 27-573, looked up, human mitochondrial hsp60 (HspD1), mature protein without the mitochondrial signal peptide, disease mutation D3G, cloned into pET-22b; numbers count on: the mature protein; Mutation found in patients with MitCHAP-60; also called D3G-hsp60; source: E. coli BL21 (DE3), purified (ammonium sulfate, anion-exchange, size-exclusion chromatography)) AKGVKFGADARALMLQGVDLLADAVAVTMGPKGRTVIIEQSWGSPKVTKDGVTVAKSIDLKDKYKNIGAKLVQDVANNTNEEAGDGTTTATVLARSIAKEGFEKISKGANPVEIRRGVMLAVDAVIAELKKQSKPVTTPEEIAQVATISANGDKEIGNIISDAMKKVGRKGVITVKDGKTLNDELEIIEGMKFDRGYISPYFINTSKGQKCEFQDAYVLLSEKKISSIQSIVPALEIANAHRKPLVIIAEDVDGEALSTLVLNRLKVGLQVVAVKAPGFGDNRKNQLKDMAIATGGAVFGEEGLTLNLEDVQPHDLGKVGEVIVTKDDAMLLKGKGDKAQIEKRIQEIIEQLDVTTSEYEKEKLNERLAKLSDGVAVLKVGGTSDVEVNEKKDRVTDALNATRAAVEEGIVLGGGCALLRCIPALDSLTPANEDQKIGIEIIKRTLKIPAMTIAKNAGVEGSLIVEKIMQSSSEVGYDAMAGDFVNMVEKGIIDPTKVVRTALLDAAGVASLLTTAEVVVTEIPKEEKDPGMGAMGGMGGGMGGGMF | 14
2 | human mitochondrial hsp60 V72I mutant (SPG13) (natural protein, UniProt P10809 27-573, looked up, human mitochondrial hsp60 (HspD1), mature protein without the mitochondrial signal peptide, disease mutation V72I, cloned into pET-22b; numbers count on: the mature protein; Mutation linked to SPG13; source: E. coli BL21 (DE3), purified (ammonium sulfate, anion-exchange, size-exclusion chromatography)) AKDVKFGADARALMLQGVDLLADAVAVTMGPKGRTVIIEQSWGSPKVTKDGVTVAKSIDLKDKYKNIGAKLIQDVANNTNEEAGDGTTTATVLARSIAKEGFEKISKGANPVEIRRGVMLAVDAVIAELKKQSKPVTTPEEIAQVATISANGDKEIGNIISDAMKKVGRKGVITVKDGKTLNDELEIIEGMKFDRGYISPYFINTSKGQKCEFQDAYVLLSEKKISSIQSIVPALEIANAHRKPLVIIAEDVDGEALSTLVLNRLKVGLQVVAVKAPGFGDNRKNQLKDMAIATGGAVFGEEGLTLNLEDVQPHDLGKVGEVIVTKDDAMLLKGKGDKAQIEKRIQEIIEQLDVTTSEYEKEKLNERLAKLSDGVAVLKVGGTSDVEVNEKKDRVTDALNATRAAVEEGIVLGGGCALLRCIPALDSLTPANEDQKIGIEIIKRTLKIPAMTIAKNAGVEGSLIVEKIMQSSSEVGYDAMAGDFVNMVEKGIIDPTKVVRTALLDAAGVASLLTTAEVVVTEIPKEEKDPGMGAMGGMGGGMGGGMF | 14
